Five molecules from publication PMC12786357 can be followed below.

Data set [1] addresses S. cerevisiae GPI transamidase (GPIT) complex (S. cerevisiae). As to the kind of experiment: cryo-EM structure; dimeric GPIT peak of the SEC, about 5 mg/mL, in GDN; overall resolution 4.4 Å; two copies of the monomer model docked as rigid bodies.
Data set [2] is described as follows: FACS, surface GFP-V5-CWP2 in yeast chromosomal mutants. The conditions noted are these: glycan lost; control: wild type. For orientation: Flow cytometry measures light scatter and fluorescence of single cells or particles in a stream.
The nature of data set [3]: anti-FLAG western blot, HEK293F. The conditions noted are these: glycan lost; control: wild type. A general note: Immunoblotting shows a protein as a band on a membrane.

Take “S. cerevisiae GPI transamidase (GPIT) complex”: the stoichiometry N in data set [1] was 2.

B1: Gpi17: N228Q (protein)
parent chain: MSNANLRKWVGFCFVAIYLFLGVPLWYKLTTVYRASLPINYIESLQNNKFQDIHLVIPVYVKSDTYRFPDVHDAIQVQVNHLLNSQEQRVPWSLQVLPYNETIEQMESEGNQFHVVTLKLDEFIGYSSAYDTKETLVYYDDAAVLSNDLPFFVAQTLVEHTFQLEWTHLNKTCEGVSTNNDVAISYDPNIHLSVTLLSGDGNPVAWEIEPTLTDYFSPFRKFLSPLVNFTVDSSIVYHNDLNLHSLNGSCTSVTWFDLSHTIDLSELSSMAYYPEDSALNLAIVFPSASSSPDGLAFINGTRISDEITTLDWNSYLVPQWGVIIINKMPLKPNSVISEDYLEPMMYRFATDIFQLLGLTEGSQDLLSPYITIDSFKRLTILQNLDKATETLWSLVKLTQQFQGMSIPREVSDNVIEALDLRLQIIDLLNDPGKGGDIVWNNALHLSNELVKLCEKAFFNGEMVQQNFFPQEHMIAVYLPLLGPISAVMFFGFYNVMKEKNQKSKKNGTEREVAKEKLELKEAQKLHAIDGEDEL
As to B1, the enzymatic_activity result in data set [2] was “decreases”. For the same molecule, the expression_or_secretion entry in data set [3] is “no change”.

B2: Gpi17: N299Q (protein)
parent chain: MSNANLRKWVGFCFVAIYLFLGVPLWYKLTTVYRASLPINYIESLQNNKFQDIHLVIPVYVKSDTYRFPDVHDAIQVQVNHLLNSQEQRVPWSLQVLPYNETIEQMESEGNQFHVVTLKLDEFIGYSSAYDTKETLVYYDDAAVLSNDLPFFVAQTLVEHTFQLEWTHLNKTCEGVSTNNDVAISYDPNIHLSVTLLSGDGNPVAWEIEPTLTDYFSPFRKFLSPLVNFTVDSSIVYHNDLNLHSLNGSCTSVTWFDLSHTIDLSELSSMAYYPEDSALNLAIVFPSASSSPDGLAFINGTRISDEITTLDWNSYLVPQWGVIIINKMPLKPNSVISEDYLEPMMYRFATDIFQLLGLTEGSQDLLSPYITIDSFKRLTILQNLDKATETLWSLVKLTQQFQGMSIPREVSDNVIEALDLRLQIIDLLNDPGKGGDIVWNNALHLSNELVKLCEKAFFNGEMVQQNFFPQEHMIAVYLPLLGPISAVMFFGFYNVMKEKNQKSKKNGTEREVAKEKLELKEAQKLHAIDGEDEL
On to B2, for which the enzymatic_activity entry in data set [2] is recorded as “decreases”. In data set [3], the expression_or_secretion result is listed as “no change”.

B3: Gpi16: N29Q (protein)
parent chain: MILTLAYFMLGTLLLGVFAEDTVSQIGINDSLWYPYDEALVLKPLPNNDLLLSFAFQLQSEPFDPAVSSMSYDAYEHYTTFPRAIPPLLESTATRQFHLRFTRGFWDALSWGQLPHAGKEAGASGVELWSQVQAMDQEQAFHNWKKLSNSLSGLFCSSLNFIDESRTTFPRRSYASDIGAPLFNSTEKLYLMRASLPNEPICTENLTPFIKLLPTRGKSGLTSLLDGHKLFDSLWNSISLDIATICSEDEDALCHYEMDARIEMVTHVPSALARGERPIPKPLDGNTLRCDTDKPFDSYQCFPLPEPSQTHFKLSQLFARPINNGNLFANRPTRICAEVDRSTWTAFLSVDDTIFSTHDNCFDLSNDQNEGGSGYDFILESTDTTKVTPIVPVPIHVSRSLTGNGQDRGGMRIVFHNDNDTPVKLIYFESLPWFMRVYLSSLQITSTTSPQLQENDIILDKYYLQAADRKRPGHLEFTMLIPANTDIVMTYQFDKALLQFAEYPPDANHGFEIDAAVITVLSLESSSSLYEMRTSTLLLSLSTPDFSMPYNVIILTSTIMGLIFGMLYNLMVKRMVTVEEADKITLQSGLKYKLLKLKEKFLGKKKTKTD
Consider B3, for which the enzymatic_activity result in data set [2] is listed as “no change”. Also, in data set [3], the expression_or_secretion entry was “no change”.

B4: Gpi16: N184Q (protein)
parent chain: MILTLAYFMLGTLLLGVFAEDTVSQIGINDSLWYPYDEALVLKPLPNNDLLLSFAFQLQSEPFDPAVSSMSYDAYEHYTTFPRAIPPLLESTATRQFHLRFTRGFWDALSWGQLPHAGKEAGASGVELWSQVQAMDQEQAFHNWKKLSNSLSGLFCSSLNFIDESRTTFPRRSYASDIGAPLFNSTEKLYLMRASLPNEPICTENLTPFIKLLPTRGKSGLTSLLDGHKLFDSLWNSISLDIATICSEDEDALCHYEMDARIEMVTHVPSALARGERPIPKPLDGNTLRCDTDKPFDSYQCFPLPEPSQTHFKLSQLFARPINNGNLFANRPTRICAEVDRSTWTAFLSVDDTIFSTHDNCFDLSNDQNEGGSGYDFILESTDTTKVTPIVPVPIHVSRSLTGNGQDRGGMRIVFHNDNDTPVKLIYFESLPWFMRVYLSSLQITSTTSPQLQENDIILDKYYLQAADRKRPGHLEFTMLIPANTDIVMTYQFDKALLQFAEYPPDANHGFEIDAAVITVLSLESSSSLYEMRTSTLLLSLSTPDFSMPYNVIILTSTIMGLIFGMLYNLMVKRMVTVEEADKITLQSGLKYKLLKLKEKFLGKKKTKTD
Take B4: in data set [2], the enzymatic_activity entry is “no change”. Also, the expression_or_secretion result in data set [3] is recorded as “no change”.

By stoichiometry N is commonly meant a count of units in the complex or per binding partner.
